Results as given in PMC5826319, “Control of the Nucleotide Cycle in Photoreceptor Cell Extracts by Retinal Degeneration Protein 3” (Frontiers in Molecular Neuroscience, 2018).
Numbering of substitutions follows the chain as printed.

Legend:
[1] = target: T1, Guanylate kinase (GUK) from porcine brain (porcine, UniProt P31006 1-198); assay: cell-based or functional assay
T1 sequence (looked up): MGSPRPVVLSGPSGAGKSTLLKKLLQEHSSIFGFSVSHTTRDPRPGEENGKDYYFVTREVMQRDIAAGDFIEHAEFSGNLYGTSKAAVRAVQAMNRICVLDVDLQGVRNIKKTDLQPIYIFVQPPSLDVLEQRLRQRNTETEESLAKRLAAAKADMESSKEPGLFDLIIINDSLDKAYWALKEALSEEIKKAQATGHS

[2] = target: T2, Guanylate kinase (GUK) in a soluble extract from bovine rod outer segments (bovine (endogenous in rod outer …, UniProt P46195 1-198)); assay: cell-based or functional assay
T2 sequence (looked up): T1 sequence (looked up) with G2S, S3G, S29G, Q116R, K153R, I170V, A194G, H197Q

[3] = target: the molecule itself; assay: cross-linking; purified RD3 (0.1 ug) with 0.5 mM BS3 for 2 min at room temperature, stopped with Tris-HCl pH 7.5; SDS-PAGE and anti-RD3 immunoblot; monomer to dimer
[4] = target: T3, Guanylate kinase (GUK), mouse, isoform 1 (mouse, UniProt Q64520-2 1-219); assay: back-scattering interferometry (BSI); free solution, label-free, nothing immobilised; RD3 (or TEV protease) 0 to 300 nM titrated into lysate supernatant of stable GUK HEK-293T cells (0.1 ug/ul) in 20 mM phosphate buffer pH 7.0, 150 mM NaCl, 0.005% Tween 20; overnight at 4°C; titration of lysate without GUK subtracted; apparent KD, Hill fit; conditions: one partner purified
T3 construct: it gives an expected theoretical mass of 22 kDa, which fits about 198 aa better than the printed 219 aa; also called recombinant GUK; GUK1
T3 sequence (looked up): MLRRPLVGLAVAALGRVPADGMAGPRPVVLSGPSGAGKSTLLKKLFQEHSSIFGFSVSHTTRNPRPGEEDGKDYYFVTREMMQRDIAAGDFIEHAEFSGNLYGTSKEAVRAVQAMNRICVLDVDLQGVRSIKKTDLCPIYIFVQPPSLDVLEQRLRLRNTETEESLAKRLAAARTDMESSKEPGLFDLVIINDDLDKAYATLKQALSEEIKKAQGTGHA

guanylate kinase activity (5'-GMP to GDP, coupled spectrophotometric assay at 340 nm), RD3 0 to 3.5 uM [1]: ~10 fold
guanylate kinase activity (5'-GMP to GDP, coupled spectrophotometric assay at 340 nm), RD3 0 to 3.5 uM [2]: 2 fold
Kd [4]: ~100 nM
B1: Retinal degeneration protein 3 (RD3), human, His6-tagged (natural protein, UniProt Q7Z3Z2 1-195, looked up)
chain: MSLISWLRWNEAPSRLSTRSPAEMVLETLMMELTGQMREAERQQRERSNAVRKVCTGVDYSWLASTPRSTYDLSPIERLQLEDVCVKIHPSYCGPAILRFRQLLAEQEPEVQEVSQLFRSVLQEVLERMKQEEEAHKLTRQWSLRPRGSLATFKTRARISPFASDIRTISEDVERDTPPPLRSWSMPEFRAPKAD
notes: The forward primer puts a few extra vector or primer residues before the first Met; also called RD3 - His6; His-tagged RD3
stoichiometry N [3]: 2
